This is an account of results in patent US20250019432A1.

The target in this assay is CD33 on U937 cells (UniProt P20138). The assay can be described thus: cell-based or functional assay.
CD33 on U937 cells, sequence (P20138 18-364 limits assumed): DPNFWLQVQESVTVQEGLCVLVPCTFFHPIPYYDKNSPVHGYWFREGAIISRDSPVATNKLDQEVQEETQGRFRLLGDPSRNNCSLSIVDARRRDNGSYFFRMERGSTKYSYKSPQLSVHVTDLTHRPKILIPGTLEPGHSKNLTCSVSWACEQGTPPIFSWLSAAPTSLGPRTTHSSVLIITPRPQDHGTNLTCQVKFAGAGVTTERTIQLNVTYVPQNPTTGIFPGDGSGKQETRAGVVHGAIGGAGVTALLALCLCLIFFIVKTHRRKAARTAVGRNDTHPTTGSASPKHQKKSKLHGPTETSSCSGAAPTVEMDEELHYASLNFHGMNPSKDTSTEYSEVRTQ

The substance anti-CD33 antibody P67.6 returned a CD33 % surface expression, 0 min of 100%; a CD33 % surface expression, 15 min of 79%; a CD33 % surface expression, 30 min of 72%; a CD33 % surface expression, 45 min of 68%. Moreover, the CD33 % surface expression, 90 min worked out at 53%; the CD33 % surface expression, 120 min was determined as 48%; the MFI of pH sensitive dye, CD33 complexes, 0 hours was 20.8; the MFI of pH sensitive dye, CD33 complexes, 4 hours was 26. This substance also registered an MFI of pH sensitive dye, CD33 complexes, 24 hours of 31.9.
